Measurements taken from the supplement of paper PMC12764529.
± gives the half width of the 95% confidence interval.

Experiments:
[1] = folding stability dG unfold from trypsin proteolysis; higher = more stable
Summary of the method: (§1)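 Only designs with AlphaFold2 dimer inter-PAE above 15 were retained; each was a mini-protein under 80 residues with no cysteine, in a PA-tagged cDNA display construct. After digestion with trypsin and chymotrypsin and sequencing, K50 was inferred by Bayesian fitting of counts, and unfolding free energy was derived per protease or combined against a sequence-predicted unfolded-state K50 and a shared folded-state K50.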

[2] = folding stability dG unfold from chymotrypsin proteolysis; higher = more stable
Summary of the method: as §1

[3] = folding stability dG unfold (combined trypsin and chymotrypsin); higher = more stable
Summary of the method: as §1

Row | Sequence | folding stability dG unfold [1] [kcal/mol] | folding stability dG unfold [2] [kcal/mol] | folding stability dG unfold [3] [kcal/mol]
1 | SAGGSAGGSPPDFVIQPEVEHTRDPENGKHEATVKIEIMDGRPIEIPFKSPEDAEDAIKELINSAGGSAGGS [r12_389_TrROS] | 1.14 ± 0.079 | 0.382 ± 0.098 | 0.829 ± 0.13
2 | SAGGSAGGSPPNKEVYIRIKIEYDGPNGQPIMEFWIPADEITPSFIEELMNRGGIKVDIELIPSAGGSAGGS [r12_398_TrROS] | 2.66 ± 0.085 | 2.99 ± 0.032 | 2.84 ± 0.1
3 | SAGGSAGGSPRVLEIRRYPLPDGGYLLEVRFEKETLFIPVPENVPPHSLEEIEIPLLLGEKPESAGGSAGGS [r12_673_TrMRF] | 1.49 ± 0.022 | 1.6 ± 0.027 | 1.6 ± 0.044
4 | SAGGSAGGSPSEEARKKGGLTLTITLRYPDGSTVTITYPVSTPLTIPEEFAKNPPKIESIELSSAGGSAGGS [r12_161_JUSTAS] | 1.23 ± 0.019 | 1.38 ± 0.051 | 1.34 ± 0.073
5 | SAGGSAGGSPSVLDQVKRMIQDRIQERFGLPPGYTVQVTIDVEIDDGGIRIKKIKAEIQPPDNSAGGSAGGS [r12_481_TrROS] | 2.12 ± 0.095 | 2.42 ± 0.054 | 2.37 ± 0.17
6 | SAGGSAGGSPTYTIDVEKYPDGYYFLKIWMPGHNRKIEHPIPPDNPDKIDEITITPNGKIKIDSAGGSAGGS [r20_11_TrROS] | 0.161 ± 0.13 | 0.309 ± 0.24 | 0.263 ± 0.17
7 | SAGGSAGGSPVFESPEQAKAFLDNVPADSTVLIAVKNPETGEWQLFVVKVPPKRPVGYPGDKDSAGGSAGGS [r12_393_TrMRF] | 1.08 ± 0.065 | 1.79 ± 0.072 | 1.56 ± 0.085
8 | SAGGSAGGSPVIAVRVKRIEVTYDAATGRLTVRIEVEVDGKTYTITVPPGAEIKPGDTLLIEPSAGGSAGGS [r20_49_TrROS_Hall] | 4.23 ± 0.098 | 4.434 ± 0.038 | 4.375 ± 0.041
9 | SAGGSAGGSPVVTVENVTRPSDYYTYTFKLPDGTVITLDAKSEEEAREKAKELGLENLNFKTEESAGGSAGG [r6_601_JUSTAS] | 3.15 ± 0.19 | 3.88 ± 0.13 | 3.8 ± 0.14
10 | SAGGSAGGSPYTIMYPIPGDTVEEVKDIAKEIMEHFPNFKITVSVEPPKDGQYWVTIELEMPDSAGGSAGGS [r12_425_TrROS] | 1.87 ± 0.11 | 2.23 ± 0.049 | 2.09 ± 0.15
11 | SAGGSAGGSRIIFRIPPEFRENMPIEEIVEEFLPPGMPVEIEWERTPDPWYVTVDIEIPPGQLSAGGSAGGS [r12_716_TrROS] | 0.364 ± 0.16 | 0.325 ± 0.33 | 0.334 ± 0.27
12 | SAGGSAGGSRKTILFRFPDGMMIKISLEENPNGNKRVRVTVYNPDNGKKRRMPADELPPNAKISAGGSAGGS [r12_797_TrROS] | 1.14 ± 0.079 | 3.13 ± 0.09 | 2.64 ± 0.15
13 | SAGGSAGGSRLGLEEFERIAREIAEELGISDLVAEVEELEDDYALLTIYNPETGEKLEILVPGSAGGSAGGS [r12_1000_TrMRF] | 1.13 ± 0.053 | 0.898 ± 0.025 | 1.07 ± 0.09
14 | SAGGSAGGSSAPPGEVRTEAVSLTVRSTVPITYPNSPTTTLSLTTTLTVTLTREVSPVRPEVESAGGSAGGS [r20_14_JUSTAS] | 2.88 ± 0.21 | 3.84 ± 0.085 | 3.34 ± 0.22
15 | SAGGSAGGSSIGRTEYIPEENLIVREEPETGLTIITKKPPNGPNIVYTIEPETGEKTVEESLISAGGSAGGS [r12_55_JUSTAS] | 0.445 ± 0.067 | -0.0944 ± 0.22 | 0.292 ± 0.2
16 | SAGGSAGGSSLLVLRELADGGVALHLIDVEPDEPVGVETVLDEFRELHPDTPPLPVLILRPDPSAGGSAGGS [r12_262_TrMRF] | 0.251 ± 0.031 | -0.127 ± 0.14 | 0.115 ± 0.073
17 | SAGGSAGGSSMKVEVTVEPVDPARGLYRVTITLYDPNSDTPLKTVPVLAESPEEIEAAILELLSAGGSAGGS [r12_26_JUSTAS] | 2.55 ± 0.11 | 2.91 ± 0.05 | 2.67 ± 0.12
18 | SAGGSAGGSSMLTITKTYTLPPEEIKKIEGKPGVLKVEPFVTPEGKLVVKVEIRLEIGPEKLLLSAGGSAGG [r6_155_JUSTAS] | 0.738 ± 0.11 | 1.11 ± 0.22 | 0.914 ± 0.11
19 | SAGGSAGGSSMPFLNPDGHPAVLVEVDGSTGSLSVELRGPDGRPVLQVSVSVSGPATVTVRVGSAGGSAGGS [r12_960_JUSTAS] | 2.75 ± 0.11 | 2.56 ± 0.086 | 2.61 ± 0.079
20 | SAGGSAGGSSMSSTVEKEPDDVLIISTKVFFDTDTYSTLTTIVEVKPPLDPSNPELLARALGLLSAGGSAGG [r6_293_JUSTAS] | 1.1 ± 0.026 | 1.49 ± 0.039 | 1.3 ± 0.063
21 | SAGGSAGGSSPDWSVKKSTVTVTITFPEEKYFEPETKKEVAKRPVITIEIEIEVVETLPASLISAGGSAGGS [r12_600_JUSTAS] | 1.65 ± 0.067 | 1.44 ± 0.096 | 1.63 ± 0.19

Row | Sequence | folding stability dG unfold [1] [kcal/mol] | folding stability dG unfold [2] [kcal/mol] | folding stability dG unfold [3] [kcal/mol]
22 | SAGGSAGGSSPPLEILDPVSATLPDGGTLTVAKAAGSYYLVTTTTYDPATGTATSTTTVVPLESAGGSAGGS [r20_15_JUSTAS] | 0.0164 ± 0.088 | 0.827 ± 0.076 | 0.528 ± 0.065
23 | SAGGSAGGSSPSTSSERRIELPGGEEAEVFFYPSSGKILVRFPDREVEYYVEDDGKIVKKDPLSAGGSAGGS [r12_47_JUSTAS] | 0.478 ± 0.063 | 0.0525 ± 0.21 | 0.315 ± 0.13
24 | SAGGSAGGSSSATLAADETATLRFRVTLTFGSGVRSGTADLSGSVSATVEVDVEIEVRNLADDSAGGSAGGS [r12_668_TrMRF] | 3.32 ± 0.056 | 4.62 ± 0.082 | 4.24 ± 0.07
25 | SAGGSAGGSSSMVVIEKEFPDLTPEEVEKLAKEIEEKNPELGKVEVKFKPKKKPKPPLTPEAKKSAGGSAGG [r6_825_JUSTAS] | -0.672 ± 0.21 | 1.29 ± 0.036 | 0.878 ± 0.11
26 | SAGGSAGGSSVSVSFPSSVTKVEPELNDPNLTTFFESPGLVIKVTVVPGTGKVIIEKKPLSELSAGGSAGGS [r12_858_JUSTAS] | 0.858 ± 0.023 | -0.663 ± 0.13 | 0.342 ± 0.053
27 | SAGGSAGGSSVTRLIYLEDGTVLVVKLTPKPLVLPDGKPAFVLGFEVVEIRPVKDPKEALKALSAGGSAGGS [r12_915_TrMRF] | 1.81 ± 0.039 | 1.3 ± 0.081 | 1.61 ± 0.071
28 | SAGGSAGGSSYTTSTATDPNADVTTTTTTYPDSIVTPVWDPRTGKVVETVTTTPDGTTTTVAASAGGSAGGS [r12_563_JUSTAS] | 0.543 ± 0.068 | 0.0262 ± 0.17 | 0.289 ± 0.14
29 | SAGGSAGGSTALVYKNGVTVTFPVFFPDTAPAVVTLSIPSPEEAAAAVAALRAAGHAVTVEPLASAGGSAGG [r6_872_JUSTAS] | 0.96 ± 0.012 | 1.48 ± 0.048 | 1.29 ± 0.031
30 | SAGGSAGGSTIMFKVDSPDELIDKIKIPPGFRVEIMQTPDRYYVMIRPPPSPEQMAKREKNNGSAGGSAGGS [r12_274_TrROS] | 3.35 ± 0.42 | 3.16 ± 0.23 | 3.26 ± 0.41
31 | SAGGSAGGSTIRIRVKTREEAERLAKLIPGARITYDEETKEFYLEIRLPPAPPPSLEELKAALSAGGSAGGS [r20_191_TrROS_Hall] | 3.62 ± 0.062 | 1.96 ± 0.038 | 2.84 ± 0.058
32 | SAGGSAGGSTITITTVIEKDGELYVIEAKIEVTEVYYDKKTKKKVKVKVKIEIKIEKVPLEDLSAGGSAGGS [r12_809_TrROS_Hall] | 2.96 ± 0.56 | 3.28 ± 0.23 | 3.07 ± 0.45
33 | SAGGSAGGSTPELLKKLPPGAKVEVETRLVTNEDGSVYKVVKIKIVDKKTNKTLELELVVKLPSAGGSAGGS [r12_892_TrROS_Hall] | 2.13 ± 0.041 | 1.65 ± 0.052 | 1.96 ± 0.07
34 | SAGGSAGGSTPMSVEEIVERIKEEKRKENPNETVEIEFTAELKGGPEGAPEGIYPVKIKVPPGKSAGGSAGG [r6_79_JUSTAS] | 0.05 ± 0.051 | 0.489 ± 0.071 | 0.208 ± 0.12
35 | SAGGSAGGSTVEEIADFFKQQGFTDAEINVMPPPNGRRYVTVRFEMKEPNGNKHKMNFSIWIPSAGGSAGGS [r12_246_TrROS] | 2.53 ± 0.16 | 1.99 ± 0.16 | 2.31 ± 0.34
36 | SAGGSAGGSVLVIDSPEQIKKAIKEFKDNGAKSIHIRGPGRYWVIQIDPKEPKVKVERVPLGQSAGGSAGGS [r12_368_TrROS] | 0.639 ± 0.096 | 0.674 ± 0.17 | 0.643 ± 0.16
37 | SAGGSAGGSVPLELELTFKLENGSFIVVKAKIEFNPETPEFKVEVLSVEIFLEPEGKIVSDEDFSAGGSAGG [r6_864_TrMRF] | 1.43 ± 0.087 | 3.08 ± 0.085 | 2.44 ± 0.29
38 | SAGGSAGGSWDRIKDALRKYGFPPENVKIEFETYPNGNMNVMIRHNGEQIPRNRINKAIQELMSAGGSAGGS [r12_175_TrROS] | 1.27 ± 0.035 | 1.46 ± 0.096 | 1.54 ± 0.22
39 | SAGGSAGGSWFIRVEYKRPNGQPKTLQIPVPRDQLKKMSIDEIKDRAENLGLPPNVKIEWYPFSAGGSAGGS [r12_742_TrROS] | 1.04 ± 0.032 | 1.78 ± 0.061 | 1.55 ± 0.056
40 | SAGGSAGGSWIILIHWPNGKEIPIFFKSPEEANEIAEEIKKIFQEKGMEPVSVEIYPIKPGQMSAGGSAGGS [r12_301_TrROS] | 2.47 ± 0.086 | 2.26 ± 0.071 | 2.32 ± 0.21
41 | SAGGSAGGSWKIVEIEVQRFPDGMYMVEIRFPDHGMPVTVHIDPPKNKITIYFPNGRSIEIPFSAGGSAGGS [r12_88_TrROS] | 3.26 ± 0.11 | 4.22 ± 0.089 | 3.99 ± 0.12
42 | SAGGSAGGSWKPIPYKIKMTDGDGEKHEFPVQIWVAPEDGWVFIDFPNGHPFWIPANNIKIEPSAGGSAGGS [r12_256_TrROS] | 0.66 ± 0.062 | 1.88 ± 0.12 | 1.4 ± 0.13
